# Source: patent publication US20190195891A1, “DIAGNOSTIC AND THERAPEUTIC USES OF EXOSOMES” (Yeda Research and Development Co. Ltd., priority 2016, published 2019)
# Residue numbers refer to the chain shown, from its start. Names and notes keep the numbering of the source. “Also recorded” adds a separate entry of the source.
# B1: MLKL deletion mutant corresponding to its 180 N-terminal amino acid coiled-coil region: MLKL deletion mutant, 180 N-terminal amino acids (protein, UniProt Q8NB16 1-180, looked up, fragment)
# chain: MENLKHIITLGQVIHKRCEEMKYCKKQCRRLGHRVLGLIKPLEMLQDQGKRSVPSEKLTTAMNRFKAALEEANGEIEKFSNRSNICRFLTASQDKILFKDVNRKLSDVWKELSLLLQVEQRMPVSPISQGASWAQEDQQDADEDRRAFQMLRRDNEKIEASLRRLEINMKEIKETLRQYL
# B2: T357E/S358D: MLKL with phospho-mimetic mutations of the residues that are the targets of phosphorylation by RIPK3 (protein, UniProt Q8NB16 1-471, looked up, variant T357E S358D)
# Mixed lineage kinase …: MENLKHIITLGQVIHKRCEEMKYCKKQCRRLGHRVLGLIKPLEMLQDQGKRSVPSEKLTTAMNRFKAALEEANGEIEKFSNRSNICRFLTASQDKILFKDVNRKLSDVWKELSLLLQVEQRMPVSPISQGASWAQEDQQDADEDRRAFQMLRRDNEKIEASLRRLEINMKEIKETLRQYLPPKCMQEIPQEQIKEIKKEQLSGSPWILLRENEVSTLYKGEYHRAPVAIKVFKKLQAGSIAIVRQTFNKEIKTMKKFESPNILRIFGICIDETVTPPQFSIVMEYCELGTLRELLDREKDLTLGKRMVLVLGAARGLYRLHHSEAPELHGKIRSSNFLVTQGYQVKLAGFELRKTQEDMSLGTTREKTDRVKSTAYLSPQELEDVFYQYDVKSEIYSFGIVLWEIATGDIPFQGCNSEKIRKLVAVKRQQEPLGEDCPSELREIIDECRAHDPSVRPSVDEILKKLSTFSK
# B3: T357A/S358A: MLKL with the RIPK3 targeted residues replaced with alanine (protein, UniProt Q8NB16 1-471, looked up, variant T357A S358A)
# Mixed lineage kinase …: B2 Mixed lineage kinase … with E357A, D358A
# B4: K230M/Q356A: MLKL with mutations within the ATP-binding pocket imposing the conformational change attained after phosphorylation (protein, UniProt Q8NB16 1-471, looked up, variant K230M Q356A)
# Mixed lineage kinase …: B2 Mixed lineage kinase … with K230M, Q356A, E357T, D358S
# B5: 5A: MLKL in which Lys5, Lys16 Arg17, and Lys50 Arg51 were replaced with alanine (protein, UniProt Q8NB16 1-471, looked up, variant K5A K16A R17A K50A R51A)
# Mixed lineage kinase …: B2 Mixed lineage kinase … with K5A, K16A, R17A, K50A, R51A, E357T, D358S
# Tests used:
# [1] = tested on: HepG2 cells; assay: Fate of EGFR after EGF binding in control and MLKL knocked-down HepG2 cells (immunocytochemistry); type: cell-based, human; conditions: 2 hours after ligand binding; for cellular levels of the EGFR: HepG2 cells after EGF application; for difference in EGFR between cells expressing MLKL and cells deficient of it: control vs MLKL knocked-down HepG2 cells
# Experimental: (§1) Bafilomycin A1 from Santa Cruz Biotechnology was applied to the cells at 100 nM. Chloroquine was applied at 25 μM, 4-hydroxytamoxifen was applied at 1 μM, and ionomycin was applied at 1 μM, ultra pure LPS, applied at 1 μg/ml (all from Sigma). Human ECF from Biological industries, mouse EGF from ProSpec and human TNF from Ybdy were biotinylated using an EZ-Link biotinylation kit (Thermo Fisher Scientific) and then applied to the cells at 5 μg/ml or injected intravenously into mice at a dose of 10 μg/mouse. Bovine serum albumin (BSA), tagged with gold particles (BSA-gold, CMC Utrecht), was applied to the cells at an optical density of 2. To trigger necroptosis, TNF (1000 units/ml) was applied together with the bivalentIAP (inhibitor of apoptosis protein) antagonist BV6 and the caspase inhibitor z-VAD-fmk, both from WuXu App Tec, at concentrations of 1 μM and 20 μM respectively. IL-1β ELISA kit was from eBiosicne.
# Prior to ligand treatment the cells were incubated for 12 hours in serum-free medium. Biotinylated EGF and TNF were applied to the cells for 30 minutes on ice in CO2-independent medium (Thermo Fisher Scientific), and this was followed by rinsing and rther incubation without those ligands at 37° C. For western blot analysis, cellular proteins were extracted at the indicated times in RIPA buffer (20 mM Tris-HCl pH 7.5, 150 mM NaCl, 1 mM EDTA, 1 mM EGTA, 1% NP-40, 0.5% sodium deoxycholate, 0.1% sodium dodecyl sulfate (SDS), protease and phosphatase inhibitors). For immunofluorescence microscopy, cells were fixed in 4% paraformaldehyde (PFA) in PBS and then stained with fluorescence-conjugated antibodies.
# Immunostaining was performed as described previously [Yoon S. et al., Cell death and differentiation (2016) 23, 253-260]. Briefly, cells fixed with 4% PFA in PBS were permeabilized by incubation in methanol at −20° C. for 10 minutes, followed by incubation in blocking buffer (20% normal goat serum (NGS), 2% BSA, 0.3 M glycine and 0.1% Tween-20 in PBS, pH 7.2). Following incubation with the indicated antibodies, images were obtained using an Olympus IX 81 confocal microscope (Olympus Imaging), with a UPLSAPO 60×1.35 NA oil objective and FluoView FV1000 software (Olympus Imaging). Images were processed using Imaris software from Bitplane.
# [2] = tested on: HepG2 cells; assay: Exosome generation by HepG2 cells, ionomycin treatment; type: cell-based, human
# Experimental: as §1, with “To trigger necroptosis, TNF (1000 units/ml) was applied together with the bivalentIAP (inhibitor of apoptosis protein) antagonist BV6 and the caspase inhibitor z-VAD-fmk, both from WuXu App Tec, at concentrations of 1 μM and 20 μM respectively. IL-1β ELISA kit was from eBiosicne.” left out
# (§2) In all experiments aimed at assessing the generation of exosomes by cultured cells, the FBS supplementing the growth medium was pre-depleted of bovine exosomes by centrifugation at […] for 18 hours. […] The stimuli whose effect on exosome generation was to be assessed were applied for the indicated times towards the end of this 12 hour period. […] Size spectra and amounts of the particles in the exosome preparations were determined by Nanoparticle Tracking Analysis using the NanoSight NS300 device (Malvern Instruments) according to the manufacturer's instructions.
# [3] = tested on: MEFs; assay: Exosome generation by MEFs, ionomycin treatment; type: cell-based, mouse
# Experimental: as §1, with “To trigger necroptosis, TNF (1000 units/ml) was applied together with the bivalentIAP (inhibitor of apoptosis protein) antagonist BV6 and the caspase inhibitor z-VAD-fmk, both from WuXu App Tec, at concentrations of 1 μM and 20 μM respectively. IL-1β ELISA kit was from eBiosicne.” left out
# as §2
# [4] = tested on: HT29 cells; assay: Exosome generation by HT29 cells after triggering necroptosis (Nanoparticle Tracking Analysis, western blot); type: cell-based, human; conditions: HT-29 cells treated with TBZ
# Experimental: as §1, with “To trigger necroptosis, TNF (1000 units/ml) was applied together with the bivalentIAP (inhibitor of apoptosis protein) antagonist BV6 and the caspase inhibitor z-VAD-fmk, both from WuXu App Tec, at concentrations of 1 μM and 20 μM respectively. IL-1β ELISA kit was from eBiosicne.” left out
# as §2
# Cells and liver samples were extracted in RIPA and in 1% SDS, respectively. […] Band intensity was quantified using the ImageJ software.
# [5] = tested on: MLKL knocked-down HT-29 cells; assay: Yield of exosomes in MLKL knocked-down HT-29 cells inducibly expressing MLKL mutants; type: cell-based, human; conditions: inducible expression, compared to wild-type MLKL
# Excerpt: (§3) The various mutants of MLKL were expressed inducibly in HT-29 cells in which the endogenous MLKL mRNA was constitutively knocked down. Expression was achieved by lentiviral infection with the GEV16/pF5x UAS system as described previously [Dunning C J et al. The EMBO Journal (2007) 26, 3227-3237, doi:10.1038/sj.emboj.7601748].
# In all experiments aimed at assessing the generation of exosomes by cultured cells, the FBS supplementing the growth medium was pre-depleted of bovine exosomes by centrifugation at […] for 18 hours. Except where otherwise indicated, the exosomes were collected after 12 hours of incubation. The stimuli whose effect on exosome generation was to be assessed were applied for the indicated times towards the end of this 12 hour period. Unless otherwise indicated, TBZ was applied for 4 hours. For recovery of exosomes from the mice, mouse blood samples were collected in MiniCollect®TUBEs (Greiner Bio-One) and centrifuged at 3000 rpm for 15 minutes. Mouse plasma and cell-growth media were passed through 0.2 μm filters and centrifuged at […] for 90 minutes, after which the pellet was suspended in phosphate-buffered saline (PBS) and re-sedimented by centrifugation as above. Size spectra and amounts of the particles in the exosome preparations were determined by Nanoparticle Tracking Analysis using the NanoSight NS300 device (Malvern Instruments) according to the manufacturer's instructions.
# [6] = tested on: MLKL knocked-down HT-29 cells; assay: Cell death in MLKL knocked-down HT-29 cells inducibly expressing MLKL mutants; type: cell-based, human; conditions: induced expression of the mutant
# Excerpt: as §3
# Cell death was quantified using the Cytotoxicity Detection Kit (Roche Applied Science) to determine the concentration of lactic dehydrogenase (LDH) in the mouse cell media or plasma.
# [7] = tested on: MLKL knocked-down HepG2 cells; assay: Levels of EGF and EGFR in MLKL knocked-down HepG2 cells inducibly expressing MLKL mutants (western blot); type: cell-based, human; conditions: EGF applied 7 hours after induction
# [8] = tested on: HepG2 cells; assay: Cell death of HepG2 cells inducibly expressing MLKL mutants; type: cell-based, human; conditions: inducible expression in HepG2 cells
# [9] = tested on: MLKL knocked-down HT-29 cells; conditions: cited from earlier work; for death in HT29 cells on inducible expression: Yoon et al. (2016); for induction of necroptosis/death by TBZ: as previously reported (Sun et al. 2012; Quarato et al. 2016)
molecule,measurement,setting,value
CO/C1=C\C(C)=C\[C@@H](C)[C@@H](O)[C@@H](C)C/C(C)=C/C=C/[C@H](OC)[C@@H]([C@@H](C)[C@@H](O)[C@H](C)[C@@]2(O)C[C@@H](O)[C@H](C)[C@@H](C(C)C)O2)OC1=O [bafilomycin A1],cellular levels of the EGFR,[1],withhold the decrease
same,difference in EGFR between cells expressing MLKL and cells deficient of it,[1],obliterate the difference
same,difference in EGFR between cells expressing MLKL and cells deficient of it,[1]; listed as Baf A1,equal accumulation of EGFR
CCN(CC)CCCC(C)Nc1ccnc2cc(Cl)ccc12 (stereo not shown) [chloroquine],cellular levels of the EGFR,[1],withhold the decrease
same,difference in EGFR between cells expressing MLKL and cells deficient of it,[1],obliterate the difference
same,difference in EGFR between cells expressing MLKL and cells deficient of it,[1]; listed as CQ,equal accumulation of EGFR
C[C@H](CCC(=O)O)C[C@H](C)C[C@H](C)C(=O)/C=C(\O)[C@H](C)C[C@H](C)C/C=C/[C@@H](C)[C@@H](O)[C@@H](C)[C@@H](O)C[C@@H]1CC[C@@](C)([C@H]2CC[C@@](C)([C@@H](C)O)O2)O1 [ionomycin],generation of exosomes,[2]; HepG2 cells,enhanced generation of exosomes
same,generation of exosomes,[2]; HepG2 cells deficient of MLKL,no such enhancement
same,generation of exosomes,[3]; MEFs,enhanced generation of exosomes
same,generation of exosomes,[3]; MEFs deficient of MLKL,no such enhancement
CN1C(=O)C(Cc2c[nH]c3ccccc23)NC1=S (stereo not shown) [necrostatin-1],effect on enhancement of exosome generation by TBZ,[4],block this enhancement; also recorded: reversal
B1,generation of exosomes,[5],significantly lower
same,cell death,[6],triggers necrotic death of the cells
B2,generation of exosomes,[5],levels higher than in cells expressing the wild type protein
same,intracellular degradation of EGF and EGFR following uptake,[7],facilitated
same,death of HepG2 cells within the time of the test,[8],no death
same,death in HT29 cells on inducible expression,[9],triggers death
B3,generation of exosomes,[5],compromised
same,induction of necroptosis/death by TBZ,[9],compromised
B4,generation of exosomes,[5],levels higher than in cells expressing the wild type protein
same,intracellular degradation of EGF and EGFR following uptake,[7],facilitated
same,death of HepG2 cells within the time of the test,[8],about 1%
same,death in HT29 cells on inducible expression,[9],triggers death
B5,generation of exosomes,[5],failed to generate exosomes
same,induction of necroptosis/death by TBZ,[9],arrest death induction
